We go through four molecules from article doi:10.1101/2025.05.16.654599 (bioRxiv, 2025).

The target of assay [1] is mNeon PPM1H (human) (UniProt Q9ULR3). The assay can be described thus: MST; unlabeled Rab titrated (16 serial dilutions) against 100 nM fluorescent mNeon PPM1H form; Monolith NT.115; 30 min in the dark in a reaction buffer; 3 independent measurements with different protein preparations.
The target of assay [2] is T1, mNeon PPM1H (human, UniProt Q9ULR3 1-514).
T1 construct: PPM1H phosphatase, human, full length; mNeon inserted into loop 1 (residues 115-133) at position 125; mNeon is the fluorophore read in MST; not measured here; also called HisSUMO-mNeon PPM1H; His SUMO mNeon PPM1H; not shown: His-SUMO, N-terminal, cleaved; mNeon, internal (in loop 1 at position 125), kept
T1 sequence (looked up): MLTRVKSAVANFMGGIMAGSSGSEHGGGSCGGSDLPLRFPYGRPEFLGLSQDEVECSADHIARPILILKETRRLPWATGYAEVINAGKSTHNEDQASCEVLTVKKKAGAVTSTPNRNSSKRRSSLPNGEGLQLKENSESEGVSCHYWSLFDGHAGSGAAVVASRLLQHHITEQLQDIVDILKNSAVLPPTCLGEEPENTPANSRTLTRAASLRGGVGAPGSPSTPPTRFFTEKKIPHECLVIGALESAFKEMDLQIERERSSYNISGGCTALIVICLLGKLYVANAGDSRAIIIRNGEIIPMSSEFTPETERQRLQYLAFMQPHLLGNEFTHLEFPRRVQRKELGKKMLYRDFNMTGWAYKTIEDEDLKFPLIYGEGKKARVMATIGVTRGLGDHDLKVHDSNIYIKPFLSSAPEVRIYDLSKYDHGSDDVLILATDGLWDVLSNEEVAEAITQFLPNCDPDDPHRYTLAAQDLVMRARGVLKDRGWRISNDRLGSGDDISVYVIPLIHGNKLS
Described as above. Particulars: both partners purified.

Broadly, the Kd is a measure of binding affinity in units of concentration. Consider “Rab12 (Q101L) full length (from UniProt Q6IQ22-2 1-244) (natural protein)”, for which the Kd in assay [1] stood at 7.4 µM. This counts as single-digit micromolar.

B1: Rab10 (Q68L) full length (natural protein, human, UniProt P61026 1-200, looked up)
chain: MAKKTYDLLFKLLLIGDSGVGKTCVLFRFSDDAFNTTFISTIGIDFKIKTVELQGKKIKLQIWDTAGLERFHTITTSYYRGAMGIMLVYDITNGKSFENISKWLRNIDEHANEDVERMLLGNKCDMDDKRVVPKGKGEQIAREHGIRFFETSAKANINIEKAFLTLAEDILRKTPVKEPNSENVDISSGGGVTGWKSKCC
notes: also called His SUMO Rab10 (Q68L); non-phosphorylated Rab10; not shown: His-SUMO, N-terminal, cleaved
Turning to B1, the Kd in assay [2] amounted to 1300 ± 900 nM.

B2: His Rab8A (Q67L) full length (natural protein, human, UniProt P61006 1-207, looked up)
chain: MAKTYDYLFKLLLIGDSGVGKTCVLFRFSEDAFNSTFISTIGIDFKIRTIELDGKRIKLQIWDTAGLERFRTITTAYYRGAMGIMLVYDITNEKSFDNIRNWIRNIEEHASADVEKMILGNKCDVNDKRQVSKERGEKLALDYGIKFMETSAKANINVENAFFTLARDIKAKMDKKLEGNSPQGSNQGVKITPDQQKRSSFFRCVLL
notes: Printed both as 'His Rab8A' and 'Rab8A-6XHis'; also called Rab8A-6XHis; non-phosphorylated Rab8A
In the case of B2, the affinity in assay [2], expressed as Kd, was 1400 ± 980 nM.

B3: thio-phosphorylated Rab8A (natural protein, human, UniProt P61006 1-207, looked up)
chain: MAKTYDYLFKLLLIGDSGVGKTCVLFRFSEDAFNSTFISTIGIDFKIRTIELDGKRIKLQIWDTAGLERFRTITTAYYRGAMGIMLVYDITNEKSFDNIRNWIRNIEEHASADVEKMILGNKCDVNDKRQVSKERGEKLALDYGIKFMETSAKANINVENAFFTLARDIKAKMDKKLEGNSPQGSNQGVKITPDQQKRSSFFRCVLL
modifications: thio-phosphorylated with ATPγS by MST3 kinase (residue not given); fully modified by PhosTag gel
notes: Rab8A GTPase, human, full length, non-prenylated, Q67L, thio-phosphorylated; Removal of His-MST3 before MST is not described for this preparation; also called thio-pRab8A; His pRab8A Q67L; source: E. coli, purified His Rab8A Q67L, then incubated overnight at 4°C with His-MST3 kinase and 2 mM ATPγS
Consider B3, for which the Kd in assay [2] turned out to be 990 ± 630 nM.
